Data as given in patent US20260125455A1 (CLEVELAND CLINIC FOUNDATION, published 2026).
Blank lines part the entries; values can stand above or below the binder they belong to.

Key:
[1] = target: T1, human complement protein C6 (human, UniProt P13671 22-934); assay: SPR (Biacore 8K)
T1 construct: also called human C6; C6 antigen
Description: (§1) The kinetics of C6 binding was compared for the purified chimeric and lead humanized C601 using surface plasmon resonance (SPR, Biacore 8K). IgG were captured on a protein G sensor chip and binding of C6 measured using a three-fold concentration series of C6 from 0.03 nM-25 nM (FIG. 5). In a second experiment, a two-fold concentration series from 0.31 nM-20 nM C6 was used (FIG. 6). For all antibodies, binding of C6 occurred in a concentration-dependent manner and data could be fitted using a 1:1 model to calculate the association rate (kₒₙ), dissociation rates (kd) and affinity constant (KD). The kinetic data are shown in Table 5, which indicates only small differences between the parameters determined from the two independent experiments.
(§2) Binding ELISAs used Nunc Maxisorp 384-well plates, wells coated with C6, C5b,6 complex or C5 (Complement Technology Inc, TX) and goat anti-human IgG (Fab specific) peroxidase secondary antibodies (Sigma-Aldrich, A0293) for detection. For the thermal stability assay, IgG supernatants were diluted to their EC₈₀ concentration, incubated at different temperatures for 10 min and C6 binding measured by ELISA with the binding signal plotted against temperature. Kinetics of C6 binding were measured by capturing antibodies from supernatant samples using Protein G biosensors and performing a 20 min association step with 2.5 nM C6 and a 20 min dissociation step using the Octet RED96. Precise kinetic measurements were obtained by surface plasmon resonance (Biacore 8K, Cytiva). The IgG were captured on a protein G sensor chip. Binding of C6 measured using a three-fold concentration series of C6 from 0.03 nM-25 nM and data were fitted using a 1:1 model in two independent experiments.

[2] = target: human complement protein C5 (human, UniProt P01031 19-673; P01031 678-1676); assay: ELISA, C5-coated wells
Description: The 20 purified antibodies were tested by ELISA for their abilities to bind human complement proteins C5, C5b6 and C6. The antibodies were divided into two sets for this analysis. MoC601 HuG4K and HuG4K isotype controls were included alongside each set, as was C601HFKC4 HuG4K (aka 3713) expression supernatant from the original transfection as an additional positive control. In addition, three humanized antibodies (C601HFKC4 HuG4K, C601HPKI HuG4K and C601HPKC4 HuG4K) were included within both sets to allow better comparison between the plates. The antibodies all show specificity for C6 with no detectable binding to C5. All humanized antibodies bind to C6 and to C6 as part of the C5b6 complex. The lower plateaus of the C5b6 complex binding curves are explained by less C6 protein being available for binding when wells are coated with C5b6 complex as opposed to C6 alone. […] The EC₅₀ values are included in the figure but slightly different plateau levels observed for the antibodies are influencing the apparent EC₅₀ values. However, it was noted that the EC₅₀ values tended to be lower on the plates for the second set of antibodies. For this reason, a subset of the 20 antibodies was tested in a further ELISA for binding to C6 and C5b6 complex.
as §2

[3] = target: T1, human complement protein C6; assay: ELISA, C6-coated wells, large-scale purified antibody
[4] = target: T1, human complement protein C6; assay: C6-binding ELISA, A650 nm; sample 'PBS' (28 days at 37 C) [cont.) E]
Description: (§3) For the serum stability assessment, samples of the purified candidate antibodies are normally incubated in mouse, human and cynomolgus serum at 37 C for 28 days and then tested in an antigen-binding ELISA. Since the anti-C6 antibodies are expected to bind to both human and cynomolgus C6 but not mouse C6, we anticipated that incubating in human or cynomolgus sera would reduce ELISA binding due to occupation of the antibody binding sites by C6 protein from the sera. Therefore, the chimeric and humanized antibodies were tested with human and mouse sera and with human sera from which the C6 protein has been depleted. The C6-binding ELISA was then used to compare the binding abilities of the C601 antibodies that had been incubated in the 3 different sera to antibody samples that were incubated in PBS at 37 C or kept at 4 C (non-incubated).
(§4) The Uncle instrument (Unchained Labs) was used to monitor unfolding via intrinsic fluorescence and aggregation by static light scattering across a temperature gradient to obtain melting temperatures (Tₘ). […] Isoelectric points were determined by capillary isoelectric focusing using a PA800+ (Beckman Coulter). […]

[5] = target: T1, human complement protein C6; assay: SPR (Biacore 8K), IgG on protein G chip, C6 0.03-25 nM 3-fold series, 1:1 fit
Description: as §1, §2

[6] = target: T1, human complement protein C6; assay: SPR (Biacore 8K), IgG on protein G chip, C6 0.31-20 nM 2-fold series, 1:1 fit
Description: as §1

[7] = target: T1, human complement protein C6; assay: C6-binding ELISA, A650 nm; sample 'mouse serum' (28 days at 37 C) [cont.) E]
Description: as §3, with “The C6-binding ELISA was then used to compare the binding abilities of the C601 antibodies that had been incubated in the 3 different sera to antibody samples that were incubated in PBS at 37 C or kept at 4 C (non-incubated).” left out
as §2, with “Precise kinetic measurements were obtained by surface plasmon resonance (Biacore 8K, Cytiva). The IgG were captured on a protein G sensor chip. Binding of C6 measured using a three-fold concentration series of C6 from 0.03 nM-25 nM and data were fitted using a 1:1 model in two independent experiments.” left out

[8] = target: T1, human complement protein C6; assay: C6-binding ELISA, A650 nm; sample 'PBS, non-incubated' (kept at 4 C) [cont.) E]
Description: (§5) The C6-binding ELISA was then used to compare the binding abilities of the C601 antibodies that had been incubated in the 3 different sera to antibody samples that were incubated in PBS at 37 C or kept at 4 C (non-incubated).
as §2, with “Precise kinetic measurements were obtained by surface plasmon resonance (Biacore 8K, Cytiva). The IgG were captured on a protein G sensor chip.” left out
(§6) The Uncle instrument (Unchained Labs) was used to monitor unfolding via intrinsic fluorescence and aggregation by static light scattering across a temperature gradient to obtain melting temperatures (Tₘ). […] Isoelectric points were determined by capillary isoelectric focusing using a PA800+ (Beckman Coulter).

[9] = target: T1, human complement protein C6; assay: C6-binding ELISA, A650 nm; sample 'C6-depleted human serum' (28 days at 37 C) [cont.) E]
Description: as §3, with “The C6-binding ELISA was then used to compare the binding abilities of the C601 antibodies that had been incubated in the 3 different sera to antibody samples that were incubated in PBS at 37 C or kept at 4 C (non-incubated).” left out
as §2, with “Precise kinetic measurements were obtained by surface plasmon resonance (Biacore 8K, Cytiva). The IgG were captured on a protein G sensor chip. Binding of C6 measured using a three-fold concentration series of C6 from 0.03 nM-25 nM and data were fitted using a 1:1 model in two independent experiments.” left out

[10] = target: T1, human complement protein C6; assay: C6-binding ELISA, A650 nm; sample 'human serun' (human serum, 28 days at 37 C) [cont.) E]
Description: as §3, with “The C6-binding ELISA was then used to compare the binding abilities of the C601 antibodies that had been incubated in the 3 different sera to antibody samples that were incubated in PBS at 37 C or kept at 4 C (non-incubated).” left out
as §2, with “Precise kinetic measurements were obtained by surface plasmon resonance (Biacore 8K, Cytiva). The IgG were captured on a protein G sensor chip. Binding of C6 measured using a three-fold concentration series of C6 from 0.03 nM-25 nM and data were fitted using a 1:1 model in two independent experiments.” left out

[11] = target: T1, human complement protein C6; assay: C6-binding ELISA, A650 nm; sample 'PBS' (28 days at 37 C) [cont.) F]
Description: as §3, §4

[12] = target: T1, human complement protein C6; assay: C6-binding ELISA, A650 nm; sample 'mouse serum' (28 days at 37 C) [cont.) F]
Description: as §3, with “The C6-binding ELISA was then used to compare the binding abilities of the C601 antibodies that had been incubated in the 3 different sera to antibody samples that were incubated in PBS at 37 C or kept at 4 C (non-incubated).” left out
as §2, with “Precise kinetic measurements were obtained by surface plasmon resonance (Biacore 8K, Cytiva). The IgG were captured on a protein G sensor chip. Binding of C6 measured using a three-fold concentration series of C6 from 0.03 nM-25 nM and data were fitted using a 1:1 model in two independent experiments.” left out

[13] = target: T1, human complement protein C6; assay: C6-binding ELISA, A650 nm; sample 'PBS, non-incubated' (kept at 4 C) [cont.) F]
Description: as §5
as §2, with “Precise kinetic measurements were obtained by surface plasmon resonance (Biacore 8K, Cytiva). The IgG were captured on a protein G sensor chip.” left out
as §6

[14] = target: T1, human complement protein C6; assay: C6-binding ELISA, A650 nm; sample 'C6-depleted human serum' (28 days at 37 C) [cont.) F]
Description: as §3, with “The C6-binding ELISA was then used to compare the binding abilities of the C601 antibodies that had been incubated in the 3 different sera to antibody samples that were incubated in PBS at 37 C or kept at 4 C (non-incubated).” left out
as §2, with “Precise kinetic measurements were obtained by surface plasmon resonance (Biacore 8K, Cytiva). The IgG were captured on a protein G sensor chip. Binding of C6 measured using a three-fold concentration series of C6 from 0.03 nM-25 nM and data were fitted using a 1:1 model in two independent experiments.” left out

[15] = target: T1, human complement protein C6; assay: C6-binding ELISA, A650 nm; sample 'human serun' (human serum, 28 days at 37 C) [cont.) F]
Description: as §3, §4

T1 sequence (P13671 22-934 limits assumed): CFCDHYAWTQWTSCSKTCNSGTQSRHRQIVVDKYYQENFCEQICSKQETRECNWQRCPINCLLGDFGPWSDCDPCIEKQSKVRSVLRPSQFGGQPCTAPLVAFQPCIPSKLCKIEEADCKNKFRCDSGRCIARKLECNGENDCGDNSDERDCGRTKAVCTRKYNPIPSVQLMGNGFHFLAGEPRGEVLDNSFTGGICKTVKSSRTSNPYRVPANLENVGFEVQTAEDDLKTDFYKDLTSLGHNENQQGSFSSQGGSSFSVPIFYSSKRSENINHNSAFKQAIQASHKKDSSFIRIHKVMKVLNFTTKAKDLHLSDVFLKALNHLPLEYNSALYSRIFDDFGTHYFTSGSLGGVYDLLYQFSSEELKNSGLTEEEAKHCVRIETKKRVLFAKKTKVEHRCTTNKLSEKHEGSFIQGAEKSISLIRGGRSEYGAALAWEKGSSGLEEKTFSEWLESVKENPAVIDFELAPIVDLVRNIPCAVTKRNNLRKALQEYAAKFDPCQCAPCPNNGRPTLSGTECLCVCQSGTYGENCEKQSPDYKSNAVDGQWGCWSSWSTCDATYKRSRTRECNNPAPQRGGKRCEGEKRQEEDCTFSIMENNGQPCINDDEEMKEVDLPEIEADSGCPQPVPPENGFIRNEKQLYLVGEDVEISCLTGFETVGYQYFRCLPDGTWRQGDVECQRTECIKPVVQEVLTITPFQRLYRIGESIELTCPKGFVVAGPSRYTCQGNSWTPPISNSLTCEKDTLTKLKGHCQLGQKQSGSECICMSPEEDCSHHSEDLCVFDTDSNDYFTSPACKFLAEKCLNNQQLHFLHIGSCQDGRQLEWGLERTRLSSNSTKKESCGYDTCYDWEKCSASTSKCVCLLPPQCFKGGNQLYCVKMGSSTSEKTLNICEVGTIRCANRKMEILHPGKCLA
human complement protein C5, sequence (P01031 19-673 limits assumed, chain 1 of 2): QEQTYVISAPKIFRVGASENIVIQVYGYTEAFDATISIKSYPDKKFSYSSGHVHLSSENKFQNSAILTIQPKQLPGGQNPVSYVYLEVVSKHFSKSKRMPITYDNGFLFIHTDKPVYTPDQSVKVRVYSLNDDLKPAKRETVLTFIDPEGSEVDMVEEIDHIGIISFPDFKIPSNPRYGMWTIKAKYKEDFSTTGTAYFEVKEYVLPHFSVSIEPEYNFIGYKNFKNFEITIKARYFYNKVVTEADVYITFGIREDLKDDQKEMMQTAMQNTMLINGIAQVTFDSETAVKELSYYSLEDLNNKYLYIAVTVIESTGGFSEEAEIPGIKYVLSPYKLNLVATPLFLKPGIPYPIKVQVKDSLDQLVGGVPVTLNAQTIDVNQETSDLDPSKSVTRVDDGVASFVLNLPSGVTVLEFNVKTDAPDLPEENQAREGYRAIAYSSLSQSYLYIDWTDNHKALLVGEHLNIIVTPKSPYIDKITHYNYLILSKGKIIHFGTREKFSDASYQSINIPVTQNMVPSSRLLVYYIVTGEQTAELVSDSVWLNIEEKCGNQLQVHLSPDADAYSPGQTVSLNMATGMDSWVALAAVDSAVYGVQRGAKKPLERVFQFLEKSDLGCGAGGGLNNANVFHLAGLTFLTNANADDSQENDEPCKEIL
human complement protein C5, sequence (P01031 678-1676 limits assumed, chain 2 of 2): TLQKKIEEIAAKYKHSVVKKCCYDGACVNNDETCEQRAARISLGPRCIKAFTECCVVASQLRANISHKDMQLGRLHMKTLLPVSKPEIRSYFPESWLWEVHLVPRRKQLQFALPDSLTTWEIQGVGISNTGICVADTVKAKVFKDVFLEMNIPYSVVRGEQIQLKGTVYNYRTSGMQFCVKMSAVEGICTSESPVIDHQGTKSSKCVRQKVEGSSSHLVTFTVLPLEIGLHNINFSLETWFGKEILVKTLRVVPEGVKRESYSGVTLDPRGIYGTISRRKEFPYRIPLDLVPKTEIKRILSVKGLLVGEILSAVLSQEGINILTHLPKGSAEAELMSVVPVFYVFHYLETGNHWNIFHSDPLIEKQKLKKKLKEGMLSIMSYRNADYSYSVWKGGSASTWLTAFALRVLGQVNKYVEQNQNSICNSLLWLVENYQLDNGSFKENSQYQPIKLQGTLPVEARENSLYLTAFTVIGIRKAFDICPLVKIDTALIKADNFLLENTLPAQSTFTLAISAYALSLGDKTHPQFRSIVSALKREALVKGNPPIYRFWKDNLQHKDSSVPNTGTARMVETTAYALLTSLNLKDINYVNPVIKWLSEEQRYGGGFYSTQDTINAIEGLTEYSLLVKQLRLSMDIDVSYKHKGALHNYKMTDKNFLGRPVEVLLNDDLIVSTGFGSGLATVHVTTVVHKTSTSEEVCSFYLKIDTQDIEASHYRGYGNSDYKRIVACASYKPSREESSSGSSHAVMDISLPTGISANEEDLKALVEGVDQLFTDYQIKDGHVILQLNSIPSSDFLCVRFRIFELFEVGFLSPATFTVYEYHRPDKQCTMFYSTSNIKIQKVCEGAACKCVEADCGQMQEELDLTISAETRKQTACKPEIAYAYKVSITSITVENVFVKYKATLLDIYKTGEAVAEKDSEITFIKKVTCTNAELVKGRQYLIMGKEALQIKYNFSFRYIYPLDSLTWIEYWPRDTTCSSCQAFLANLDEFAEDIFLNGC

Kd [1]: 0.411 nM
binding result [2]: no binding
EC50 [3]: 0.21 nM
EC50 [4]: 0.18 nM
Kd [5]: 0.411 nM
koff [5]: 0.000492 s⁻¹
kon [5]: 1.2e+06 M⁻¹ s⁻¹
Kd [6]: 0.284 nM
koff [6]: 0.000375 s⁻¹
kon [6]: 1.32e+06 M⁻¹ s⁻¹
EC50 [7]: 0.16 nM
EC50 [8]: 0.13 nM
EC50 [9]: 0.15 nM
EC50 [10]: 0.16 nM
B1: C601HOKC4 HuG4K (antibody, human IgG4 S228P, kappa, V domains shown)
VH: QVQLVQSGAEVKKPGESLKISCKASGYAFSDYWINWVRQMPGKGLEWMGQIYPGDDDTNYNPSFQGQATLSADKSISTAYLQWSSLKASDTAMYYCAREGYYGYTYVEYFDVWGTGTTVTVSS
VL: QIVLTQSPATLSLSPGERATLSCRASSSVSYLHWYQQKPGQSPRLWIYDTSKRATGIPARFSGSGSGTDYTLTISSLEPEDFAVYYCQQWTSNPLTFGQGTKLEIKR

Kd [1]: 0.373 nM
binding result [2]: no binding
EC50 [3]: 0.23 nM
EC50 [11]: 0.19 nM
Kd [5]: 0.373 nM
koff [5]: 0.000397 s⁻¹
kon [5]: 1.07e+06 M⁻¹ s⁻¹
Kd [6]: 0.299 nM
koff [6]: 0.000355 s⁻¹
kon [6]: 1.19e+06 M⁻¹ s⁻¹
EC50 [12]: 0.16 nM
EC50 [13]: 0.22 nM
EC50 [14]: 0.17 nM
EC50 [15]: 0.17 nM
B2: C601HPKC4 HuG4K (antibody, human IgG4 S228P, kappa)
heavy: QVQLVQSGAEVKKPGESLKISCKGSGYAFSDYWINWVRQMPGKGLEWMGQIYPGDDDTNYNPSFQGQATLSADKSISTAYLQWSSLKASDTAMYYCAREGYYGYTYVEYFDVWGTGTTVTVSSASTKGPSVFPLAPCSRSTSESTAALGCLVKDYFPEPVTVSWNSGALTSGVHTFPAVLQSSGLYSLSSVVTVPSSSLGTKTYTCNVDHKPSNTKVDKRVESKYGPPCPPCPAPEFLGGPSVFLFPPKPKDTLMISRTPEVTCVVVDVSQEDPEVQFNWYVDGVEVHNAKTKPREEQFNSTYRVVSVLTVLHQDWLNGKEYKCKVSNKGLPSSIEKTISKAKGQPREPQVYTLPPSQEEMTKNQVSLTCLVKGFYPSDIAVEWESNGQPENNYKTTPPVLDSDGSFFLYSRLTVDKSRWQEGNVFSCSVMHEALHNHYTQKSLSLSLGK
light: QIVLTQSPATLSLSPGERATLSCRASSSVSYLHWYQQKPGQSPRLWIYDTSKRATGIPARFSGSGSGTDYTLTISSLEPEDFAVYYCQQWTSNPLTFGQGTKLEIKRTVAAPSVFIFPPSDEQLKSGTASVVCLLNNFYPREAKVQWKVDNALQSGNSQESVTEQDSKDSTYSLSSTLTLSKADYEKHKVYACEVTHQGLSSPVTKSFNRGEC
